Measured values from patent US20220396819A1, “METHOD FOR PRODUCING PEPTIDE HAVING PHYSIOLOGICAL ACTIVITY, AND PEPTIDE COMPRISING SHORT LINKER” (priority 2019, published 2022).
Positions of bridges follow the written chain, without caps; N, C: chain ends. No end group written: not given here.

Legend:
Met = target: T1, Met (Homo sapiens, UniProt P08581); assay: Met activation ability, SRE luciferase assay in HEK293E cells (HGF-Erk-SRE pathway); assay type: cell-based; conditions: for signal activation ability, dimer versus monomer: Example 43, FIG. 76
T1 construct: endogenous in cells; host or cells: HEK293E
Method: (§1) The Met activation ability of the HGF-PAS dimer peptide was evaluated by luciferase assay. To 25 μL of Opti-MEM medium (Thermo Fisher Scientific), 0.6 μL of Attractene Transfection Reagent (QIAGEN) was added, and the mixture was incubated at room temperature for 5 minutes. To the above mixed solution, a mixed solution of 25 μL of Opti-MEM and 1 μL of SRE reporter vector (QIAGEN) was added, and the mixture was incubated at room temperature for 20 minutes. This mixed solution was added to a 96-well plate, over which 40,000 cell/well HEK293E cells were seeded and incubated overnight in a 5% CO2 incubator at 37° C. After transfection, all culture supernatant was removed, 100 μL of Opti-MEM medium (evaluation basal medium) containing 0.5% FBS (Thermo Fisher Scientific), 1% non-essential amino acid solution (Thermo Fisher Scientific), and penicillin-streptomycin (Nacalai Tesque) was added, and incubation was performed at 37° C. for 4 hours, and thereby the cells were starved.
To the evaluation basal medium, 0 to 200 ng/mL HGF was added, or 0 to 800 ng/mL AET-PAS-aMD4dY-PEG11, AET-PAS-aMD4-PEG11, or AET-PAS-aMD4-PEG3 was added, or a culture supernatant containing PAS-aMD4dY-PEG11, PAS-aMD4-PEG11, or PAS-aMD4-PEG3 was added so as to be diluted 10-fold with respect to the medium, and the evaluation basal medium was added in an amount of 100 μL to the cells. The cells were stimulated by culturing overnight in a 5% CO2 incubator at 37° C.
The signal intensities were detected using Dual-Luciferase Reporter Assay System (Promega). The medium supernatant in an amount of 100 μL was removed, 50 μL of Glo reagent was added, and the cells were lysed for 10 minutes at room temperature. The luminescence of Firefly luciferase emitted from the cell lysate solution was detected with a plate reader to quantify the activation of the HGF-Erk-SRE pathway. Subsequently, 50 μL of Glo & Stop reagent solution was added, and after 10 minutes, the luminescence of the internal standard Renilla luciferase was detected to quantify the number of cells. The signal activity of each sample was quantified as SRE activity=(Firefly luciferase luminescence intensity)/(Renilla luciferase luminescence intensity). The relative signal activity values for the samples without addition of the evaluation compound were determined and used as relative receptor activity.
as §1, with “peptide linker variant” for “peptide”, “0.6 L” for “0.6 μL”
To the evaluation basal medium, 0 to 100 ng/mL HGF was added, or a culture supernatant containing AET-aMD4dY-PAS8, AET-aMD4dY-PAS22 (the same molecule as AET-PAS-aMD4dY-PEG11), AET-aMD4dY-PAS49, AET-aMD4dY-PAS100, AET-aMD4dY-PAS200, AET-aMD4dY-GS15, or AET-aMD4dY-GS22 was added to the medium so as to be diluted at a predetermined ratio, and the evaluation basal medium was added in an amount of 100 μL to the cells. The cells were stimulated by culturing overnight in a 5% CO2 incubator at 37° C.
The Met activation ability of the stabilized HGF-PAS dimer peptide was evaluated by luciferase assay. […]

HuCCT1 cells = assay: Tubular structure formation of HuCCT1 cells in collagen gel; assay type: cell-based; conditions: 40 ng/mL, day 7
Description: It is known that HGF is allowed to act on HUVEC cells and HuCCT1 cells contained in collagen gel to form a tubular structure (K. Ito, et al. Nat. Commun. 6, 6373, 2015). It has also been reported that a Met full agonist having a function similar to that of HGF can form a tubular structure in the above cells, whereas a partial agonist having only a partial function cannot promote the formation of a tubular structure (W. Miao, et al. Int. J. Mol. Sci. 19, 3141, 2018). Therefore, it was decided to confirm whether the HGF-PAS dimer peptide was a full agonist or a partial agonist by using a tubular structure formation experiment using HuCCT1 cells.
To 8 equivalents of CellMatrix type IA (Nitta Gelatin), 1 equivalent of 10-fold concentrated D-MEM/F12 (Thermo Fisher Scientific) and 1 equivalent of reconstitution buffer (22 g/L sodium bicarbonate, 47.7 g/L HEPES, 0.05N sodium hydroxide aqueous solution) were mixed in order on ice. HuCCT1 cells were added at 25,000 cells per mL of the mixture and mixed on ice. To a 48-well cell culture plate, 400 μL of the above mixture was added, and the mixture was allowed to stand for 4 hours under the conditions of 37° C. and 5% CO2 for gelation. Onto the formed intracellular encapsulated collagen gel, 500 μL of RPMI 1640 medium containing 10% FBS was added. The cell-stimulating group was cultured by adding 35 ng/mL HGF or 40 ng/mL AET-PAS-aMD4dY-PEG11. […]

T1 sequence (P08581 25-1390): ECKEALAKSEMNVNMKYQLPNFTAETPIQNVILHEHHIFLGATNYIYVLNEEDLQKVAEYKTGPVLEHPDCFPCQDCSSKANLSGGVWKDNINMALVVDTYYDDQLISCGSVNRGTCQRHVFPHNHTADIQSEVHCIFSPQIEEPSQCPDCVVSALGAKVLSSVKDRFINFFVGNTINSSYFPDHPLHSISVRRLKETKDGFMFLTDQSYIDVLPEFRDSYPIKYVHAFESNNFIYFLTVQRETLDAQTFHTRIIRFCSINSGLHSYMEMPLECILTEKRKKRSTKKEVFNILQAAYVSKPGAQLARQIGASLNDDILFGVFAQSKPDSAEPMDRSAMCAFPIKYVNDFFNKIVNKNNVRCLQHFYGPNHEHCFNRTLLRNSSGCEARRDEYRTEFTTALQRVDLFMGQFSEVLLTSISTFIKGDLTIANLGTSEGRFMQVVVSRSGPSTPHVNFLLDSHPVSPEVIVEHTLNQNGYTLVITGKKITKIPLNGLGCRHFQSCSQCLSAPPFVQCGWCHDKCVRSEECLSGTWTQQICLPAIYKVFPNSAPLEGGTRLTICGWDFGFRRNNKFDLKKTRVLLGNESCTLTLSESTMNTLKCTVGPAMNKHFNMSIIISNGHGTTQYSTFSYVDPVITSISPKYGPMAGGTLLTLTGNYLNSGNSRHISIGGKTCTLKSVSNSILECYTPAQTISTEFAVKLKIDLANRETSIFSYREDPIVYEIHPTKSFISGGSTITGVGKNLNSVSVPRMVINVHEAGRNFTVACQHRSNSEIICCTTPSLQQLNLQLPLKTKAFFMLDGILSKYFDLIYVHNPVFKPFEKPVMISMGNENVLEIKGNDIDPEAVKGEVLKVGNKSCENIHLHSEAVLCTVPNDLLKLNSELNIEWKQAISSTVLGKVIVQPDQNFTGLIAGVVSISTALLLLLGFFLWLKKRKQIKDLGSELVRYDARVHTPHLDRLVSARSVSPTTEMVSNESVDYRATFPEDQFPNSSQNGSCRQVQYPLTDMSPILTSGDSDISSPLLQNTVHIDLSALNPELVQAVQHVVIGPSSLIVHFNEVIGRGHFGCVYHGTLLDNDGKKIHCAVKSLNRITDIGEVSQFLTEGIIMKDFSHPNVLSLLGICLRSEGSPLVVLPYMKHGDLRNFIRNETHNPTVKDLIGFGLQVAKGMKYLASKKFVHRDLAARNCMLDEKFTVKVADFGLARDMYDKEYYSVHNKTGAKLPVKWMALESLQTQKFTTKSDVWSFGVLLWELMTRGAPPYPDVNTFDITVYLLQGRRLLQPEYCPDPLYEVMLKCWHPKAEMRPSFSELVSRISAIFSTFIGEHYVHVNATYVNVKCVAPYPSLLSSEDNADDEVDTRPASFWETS

AETCRQFNRRTHEVWNLDCGAAPAAPAPAAPAAPAPAAPAAPGCRQFNRRTHEVWNLDC (disulfide 4-19, 44-59; also: PEG11) [AET-PAS-aMD4dY-PEG11]
maximum activity compared with HGF (Met; Example 6, AET form 0 to 800 ng/mL, PAS form culture supernatant diluted 10-fold): comparable to 100 ng/mL HGF
signal activation ability, dimer versus monomer (Met): showed signal activation ability
agonist type (full or partial) for Met (HuCCT1 cells): full agonist for Met

HGF: recombinant human HGF (rhHGF, R&D Systems)
signal activation ability, dimer versus monomer (Met): showed signal activation ability
